Results from patent US20190382488A1 (IMAGINAB, published 2019).

Key:
cell-surface human CD8 [1] = target: T1, cell-surface human CD8 (human, UniProt P01732 22-235); assay: flow cytometry on HPB-ALL cells, Protein L-biotin then streptavidin-APC
T1 construct: the cell is named under assay; also called cellular human CD8; CD8 on PC3-CD8 cells
Method: (§1) Flow cytometry analysis of cys-diabody binding to cell-surface human CD8 on HPB-ALL cells was performed. Cells were stained with respective concentrations of cys-diabody, washed, stained with a secondary Protein L conjugated to Biotin, washed, then stained with a tertiary streptavidin-APC. Analysis was performed with 10,000 events/point in triplicate for each concentration. The results are shown in graph format in FIG. 30A. The graph presents the mean fluorescence intensity (MFI) vs. the log of the concentration (nM). Error bars represent the standard error. The data indicates an EC₅₀ of 0.04 nM.

cell-surface human CD8 [2] = target: T1, cell-surface human CD8; assay: flow cytometry, HPB-ALL cells, Protein L-biotin and streptavidin-APC
Method: as §1

cell-surface human CD8 [3] = target: T1, cell-surface human CD8; assay: flow cytometry on primary human CD8+ T cells, Protein L-biotin then streptavidin-APC
Method: as §1, with “primary human CD8+ T” for “HPB-ALL”, “30B.” for “30A.”, “0.02” for “0.04”

cell-surface human CD8 [4] = target: T1, cell-surface human CD8; assay: flow cytometry, primary human CD8+ T cells, Protein L-biotin and streptavidin-APC
Method: as §1, with “primary human CD8+ T” for “HPB-ALL”, “30B.” for “30A.”, “0.02” for “0.04”

cell-surface human CD8 [5] = target: T1, cell-surface human CD8; assay: flow cytometry on HPB-ALL cells, Protein L-biotin then streptavidin-APC; remark: listed apart in the source
Method: as §1, with “of cys-diabody (+/−C-terminal cysteine conjugation to Desferoxamine) binding to” for “of cys-diabody binding to”, “in FIG. 30C. The graph” for “in FIG. 30A. The graph”, “of 0.04 nM and 0.06 nM.” for “of 0.04 nM.”

T1 sequence (P01732 22-235 limits assumed): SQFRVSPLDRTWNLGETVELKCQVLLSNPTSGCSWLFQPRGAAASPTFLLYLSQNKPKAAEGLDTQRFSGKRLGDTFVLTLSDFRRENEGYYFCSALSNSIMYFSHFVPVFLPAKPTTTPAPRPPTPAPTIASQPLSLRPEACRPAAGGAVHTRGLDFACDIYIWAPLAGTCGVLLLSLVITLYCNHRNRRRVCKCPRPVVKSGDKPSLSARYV

EC50 (cell-surface human CD8 [1]): 40 pM
EC50 (cell-surface human CD8 [2]): 40 pM
EC50 (cell-surface human CD8 [3]): 20 pM
EC50 (cell-surface human CD8 [4]): 20 pM
EC50 (cell-surface human CD8 [5]): 40 pM
B1: IAb_Cys-Db3b_CD8 (other)
chain: DVQITQSPSSLSASVGDRVTITCRTSRSISQYLAWYQQKPGKVPKLLIYSGSTLQSGVPSRFSGSGSGTDFTLTISSLQPEDVATYYCQQHNENPLTFGGGTKVEIKGGGSGGGGEVQLVESGGGLVQPGGSLRLSCAASGFNIKDTYIHFVRQAPGKGLEWIGRIDPANDNTLYASKFQGKATISADTSKNTAYLQMNSLRAEDTAVYYCGRGYGYYVFDHWGQGTLVTVSSGGC
notes: Cys-diabody homodimer; also called humanized OKT8 cys-diabody VL-8-VH
